According to PMC10999626, “Kinetic modeling of the plasma pharmacokinetic profiles of ADAMTS13 fragment and its Fc-fusion counterpart in mice” (Frontiers in Pharmacology, 2024):

Legend:
[1] = molecular target: T1, biotinylated mouse FcRn protein (mouse, UniProt Q61559 22-297, biotin (biotinylated; site not stated)); assay: BLI; biotinylated mouse FcRn (1.0 ug/mL) immobilised on streptavidin biosensor tip; MDTCS-Fc 0.625 to 20 nM in solution; 25 mM acetate, 25 mM NaH2PO4, 150 mM NaCl, 0.01% Tween-20, pH 6.0; association 5 min, dissociation 5 min; Octet Qke; biosensors without FcRn subtracted; conditions: both partners purified
T1 construct: neonatal Fc receptor (FcRn), mouse; also called mouse neonatal Fc-receptor; source: bought: Acro Biosystems
T1 sequence (looked up): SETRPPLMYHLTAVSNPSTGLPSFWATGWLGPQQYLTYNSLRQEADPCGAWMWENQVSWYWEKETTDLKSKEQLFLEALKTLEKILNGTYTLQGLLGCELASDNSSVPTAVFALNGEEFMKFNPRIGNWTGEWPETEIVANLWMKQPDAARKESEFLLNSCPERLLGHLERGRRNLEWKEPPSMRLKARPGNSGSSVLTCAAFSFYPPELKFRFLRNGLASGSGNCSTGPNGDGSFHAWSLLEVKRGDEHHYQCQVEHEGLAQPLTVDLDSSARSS

[2] = molecular target: T1, biotinylated mouse FcRn protein; assay: as above; conditions: both partners purified; remark: listed apart in the source

Kd [1]: 144 ± 22 pM | koff [2]: 1.96e-06 s⁻¹
B1: MDTCS-Fc (Fc fusion)
chain: AAGGILHLELLVAVGPDVFQAHQEDTERYVLTNLNIGAELLRDPSLGAQFRVHLVKMVILTEPEGAPNITANLTSSLLSVCGWSQTINPEDDTDPGHADLVLYITRFDLELPDGNRQVRGVTQLGGACSPTWSCLITEDTGFDLGVTIAHEIGHSFGLEHDGAPGSGCGPSGHVMASDGAAPRAGLAWSPCSRRQLLSLLSAGRARCVWDPPRPQPGSAGHPPDAQPGLYYSANEQCRVAFGPKAVACTFAREHLDMCQALSCHTDPLDQSSCSRLLVPLLDGTECGVEKWCSKGRCRSLVELTPIAAVHGRWSSWGPRSPCSRSCGGGVVTRRRQCNNPRPAFGGRACVGADLQAEMCNTQACEKTQLEFMSQQCARTDGQPLRSSPGGASFYHWGAAVPHSQGDALCRHMCRAIGESFIMKRGDSFLDGTRCMPSGPREDGTLSLCVSGSCRTFGCDGRMDSQQVWDRCQVCGGDNSTCSPRKGSFTAGRAREYVTFLTVTPNLTSVYIANHRPLFTHLAVRIGGRYVVAGKMSISPNTTYPSLLEDGRVEYRVALTEDRLPRLEEIRIWGPLQEDADIQVYRRYGEEYGNLTRPDITFTYFQPKPRQAEPKSCDKTHTCPPCPAPEFLGGPSVFLFPPKPKDTLYITREPEVTCVVVDVSQEDPEVQFNWYVDGVEVHNAKTKPREEQFNSTYRVVSVLTVLHQDWLNGKEYKCKVSNKGLPSSIEKTISKAKGQPREPQVYTLPPSQEEMTKNQVSLTCLVKGFYPSDIAVEWESNGQPENNYKTTPPVLDSDGSFFLYSRLTVDKSRWQEGNVFSCSVMHEALHNHYTQKSLSLSL
